Positions count from the first letter of the chain named. Names and notes keep the numbering of the source.
T1: feline IL-5 (Kingfisher Biotech; RP1152F) (feline, UniProt O77515 20-134)
T1 construct: Bought recombinant protein; also called fIL-5; fIL5
T1 sequence (looked up): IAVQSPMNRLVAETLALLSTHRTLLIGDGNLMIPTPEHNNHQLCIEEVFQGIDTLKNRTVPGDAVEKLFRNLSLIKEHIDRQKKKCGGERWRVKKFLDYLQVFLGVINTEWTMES

B1: 1H3-C6 Fab (MtxB HCDR3 variant) (Fab, V domains shown)
VH: DVQLVESGGDLVKPGGSLRLTCVGSGFTFSNYAMSWVRQAPGEGLQWVATIGSGGHYTYHPDSVKGRFTISRDNAKNTLYLQMNSLQTEDTASYYCTRETDGYGPMDVWGQGTLVTVSS
VL: DIVMTQTPLSLSVTPGEPASISCRASQSISDYLYWYLQKPGQSPRRLIYYASQSISGVPDRFSGSGSGTDFTLRISRVEADDVGVYYCQNGHSFPYTFGPGTKLEIK
notes: Fab from the MtxB HCDR3 library; the entry named is the parent, the changed CDR is told under detail
B2: 1L2a-H2 Fab (MtxB LCDR2 variant) (Fab, V domains shown)
VH: B1 VH with G104D, P105G, V108Y
VL: B1 VL with L47V, I48F, Y50T, A51D, Q53A, S54E, I55V
notes: Fab from the MtxB LCDR2 library; the entry named is the parent, the changed CDR is told under detail
B3: 1L2-D12 Fab (MtxB LCDR2 variant) (Fab, V domains shown)
VH: B1 VH with G104D, P105G, V108Y
VL: B1 VL with L47I, I48F, Y49F, Y50G, A51Y, Q53G, S54T, I55K
notes: as for B2
B4: 1L2-E7 Fab (MtxB LCDR2 variant) (Fab, V domains shown)
VH: B1 VH with G104D, P105G, V108Y
VL: B1 VL with L47I, I48F, Y49F, Y50A, A51S, Q53L, S54Y, I55D
notes: as for B2
B5: 1L2-H7 Fab (MtxB LCDR2 variant) (Fab, V domains shown)
VH: B1 VH with G104D, P105G, V108Y
VL: B1 VL with L47V, I48F, Y49F, Y50T, A51V, Q53G, S54G, I55V
notes: as for B2
B6: 2L2-G12 Fab (MtxB LCDR2 variant) (Fab, V domains shown)
VH: B1 VH with G104D, P105G, V108Y
VL: B1 VL with L47V, I48F, Y49F, Y50T, A51P, Q53D, I55A
notes: Fab from the MtxB LCDR2 library
B7: 1L2-D1 Fab (MtxB LCDR2 variant) (Fab, V domains shown)
VH: B1 VH with G104D, P105G, V108Y
VL: B1 VL with L47I, I48F, Y49F, Y50T, A51E, S54R, I55A
notes: as for B2
B8: LxH3-D3 Fab (affinity matured MtxB) (Fab, V domains shown)
VH: B1 VH with M106I, D107L, V108D
VL: B1 VL with R46L, I48F, Y49N, Y50V, A51L, S54R, I55S, N90Q, H92L, S93V
notes: Fab from the Stage B library on MtxB; the entries named are the parent, the changed regions are told under detail
B9: LxH3-D9 Fab (affinity matured MtxB) (Fab, V domains shown)
VH: B1 VH with M106I, D107L, V108D
VL: DIVMTQTPLSLSVTPGEPASISCRASQSISDYLYWYLQKPGQSPRLIINYGSVLLSGVPDRFSGSGSGTDFTLRISRVEADDVGVYYCQQGLLFPYTFGPGTKLEIKR
notes: as for B8
B10: LxH3-A9 Fab (affinity matured MtxB) (Fab, V domains shown)
VH: B1 VH with M106L, V108L
VL: B9 VL with L46R, N49F, Y50T, V53Q, L54R, L55N, L92M, L93V
notes: as for B8
B11: LxH3-F12 Fab (affinity matured MtxB) (Fab, V domains shown)
VH: B1 VH with M106L, V108L
VL: B9 VL with I48F, Y50P, G51L, L54R, L55R, L92Y, L93V
notes: as for B8
B12: LxH3-G10 Fab (affinity matured MtxB) (Fab, V domains shown)
VH: B1 VH with M106I, D107L, V108D
VL: B9 VL with L46R, N49F, Y50T, V53Q, L54R, L55N, L92A, L93F
notes: as for B8
B13: LxH3-E2 Fab (affinity matured MtxB) (Fab, V domains shown)
VH: B1 VH with M106I, D107L, V108D
VL: B9 VL with L46R, I48F, Y50H, G51L, V53P, L54S, L55S, L92S, L93V
notes: as for B8
B14: LxH3-D6 Fab (affinity matured MtxB) (Fab, V domains shown)
VH: B1 VH with M106I, D107L, V108D
VL: B9 VL with L46R, I47V, N49Y, Y50T, V53Q, L54R, L55S, L93V
notes: as for B8
B15: LxH3-D1 Fab (affinity matured MtxB) (Fab, V domains shown)
VH: B1 VH with M106I, D107L, V108D
VL: B9 VL with L46R, I47L, N49Y, Y50F, L54R, L55S, L93Q
notes: as for B8
B16: LxH3-F5 Fab (affinity matured MtxB) (Fab, V domains shown)
VH: B1 VH with M106L, V108L
VL: B9 VL with Y50P, G51M, V53G, L54Q
notes: as for B8
B17: LxH3-F11 Fab (affinity matured MtxB) (Fab, V domains shown)
VH: B1 VH with M106I, D107L, V108D
VL: DIVMTQTPLSLSVTPGEPASISCRASQSISDYLYWYLQKPGQSPRRVFFHSSYRQSGVPDRFSGSGSGTDFTLRISRVEADDVGVYYCQQGMLFPFTFGPGTKLEIKR
notes: as for B8
B18: LxH3-F3 Fab (affinity matured MtxB) (Fab, V domains shown)
VH: B1 VH with M106L, V108L
VL: DIVMTQTPLSLSVTPGEPASISCRASQSISDYLYWYLQKPGQSPRLLFNSVSPTRSGVPDRFSGSGSGTDFTLRISRVEADDVGVYYCQQGVVFPYTFGPGTKLEIK
notes: as for B8
B19: LxH3-E8 Fab (affinity matured MtxB) (Fab, V domains shown)
VH: B1 VH with M106I, D107L, V108D
VL: B9 VL with Y50Q, G51A, V53S, L54K, L92P
notes: as for B8
B20: LxH3-G4 Fab (affinity matured MtxB) (Fab, V domains shown)
VH: B1 VH with V108L
VL: B9 VL with L46R, I47L, N49Y, Y50F, V53L, L55S
notes: as for B8
B21: LxH3-B6 Fab (affinity matured MtxB) (Fab, V domains shown)
VH: B1 VH with M106I, D107L, V108D
VL: B9 VL with I48F, Y50P, G51L, L54R, L55R, L92M, L93V
notes: as for B8
B22: LxH3-G7 Fab (affinity matured MtxB) (Fab, V domains shown)
VH: B1 VH with M106I, D107L, V108D
VL: B9 VL with I47V, I48F, Y50H, G51A, V53P, L54V, L55P, L92I, L93R
notes: as for B8
B23: LxH3-G2 Fab (affinity matured MtxB) (Fab, V domains shown)
VH: B1 VH with M106L, V108L
VL: B9 VL with I47V, Y50W, V53Q, L54R, L55A, L92A, L93I
notes: as for B8
B24: LxH3-F4 Fab (affinity matured MtxB) (Fab, V domains shown)
VH: B1 VH with D107L, V108D
VL: B9 VL with I47L, I48F, L55A, L92Y
notes: as for B8
B25: LxH3-B10 Fab (affinity matured MtxB) (Fab, V domains shown)
VH: B1 VH with M106I, D107L, V108D
VL: B9 VL with L46R, I47L, N49F, Y50T, V53Q, L54R, L55A, L92V, L93R
notes: as for B8
B26: MtxB N106S (LCDR3) variant (antibody, V domains shown)
VH: B1 VH with G104D, P105G, V108Y
VL: B1 VL with N90S
notes: Feline IgG with feline kappa constant domain
B27: MtxB N106Q (LCDR3) variant (antibody, V domains shown)
VH: B1 VH with G104D, P105G, V108Y
VL: B1 VL with N90Q
notes: as for B26

Molecular target: T1, feline IL-5 (Kingfisher Biotech; …)
Experiment: ELISA on plate-coated feline IL-5, Fab at 65 ng/ml dimerized with goat anti-feline IgG F(ab')2, anti-goat-HRP detection

| Binder | Normalized fIL-5 ELISA value, 65 ng/ml Fab |
| --- | --- |
| B1 | 0.967 |
| B2 | 0.559 |
| B3 | 0.303 |
| B4 | 0.366 |
| B5 | 0.283 |
| B6 | 0.251 |
| B7 | 0.492 |

Molecular target: T1, feline IL-5 (Kingfisher Biotech; …)
Experiment: ELISA, Fab culture supernatant on plate-coated feline IL-5, anti-feline Fab'2-HRP detection
Text: Fragments containing the pre-selected CDR pools from these libraries were randomly paired by overlap PCR to create a new library incorporating mutations throughout all targeted CDRs. The phage propagated following round 4 of selection were used for PCR amplication of LCDR2, LCDR3 and HCDR3. The PCR-amplified fragment containing the light chain and the heavy chain were ligated into a phagemid vector and transformed into E. coli. The number of transformants was approximately 2E+10. Library plasmid DNA was purified using a midi-prep purification method. Ten pg of the library plasmid DNA was transformed into E. coli for growth and propagation of the Fab phage. After overnight phage production, phage was precipitated from the culture supernatant and resuspended in blocking buffer (1% BSA/PBS). The phage were treated at 58° C. for 10 minutes to remove unstable clones prior to the selections. The input phage was incubated for 30 minutes in a blocked ELISA plate coated with feline IL-5. The ELISA plate was washed with PBS, pH 7.4 followed by acid elution of the bound phage. The output phage was then used to infect E. coli for propagation for the next round of selection. For rounds 1, 2, 3 and 4, the ELISA plates were coated with 10 μg/ml, 8 μg/ml, 5 μg/ml and 1 μg/ml, respectively. The number of washes after each round were 3, 5, 10 and 10 for rounds 1, 2, 3 and 4, respectively. Ninety-three clones from the round 4 output were grown overnight for Fab production and tested for binding to feline IL-5 in an ELISA format. For this assay, supernatants from the overnight cultures were incubated in Immulon 4 HBX high-binding plate that was coated with 10 μg/ml feline IL-5 (Kingfisher Biotech; Cat #RP1152F) and blocked with 1% bovine serum albumin in phosphate buffered saline (PBS), pH 7.4. The controls added included the MtxB clone and clone 1H3-C6 which was the top affinity clone from the first stage A1 step. The Fab binding to the feline IL-5 was detected with anti-feline Fab′₂-HRP conjugate.
The results are shown in Table 8A which compares relative Fab binding affinity to feline IL-5 by Fabs disclosed herein. IL-5 binding was detected with anti-feline Fab′₂-HRP conjugate. Differences in CDR amino acids compared to the MtxB are underlined. The data in the last column are absorbance following addition of substrate to detect the HRP conjugate.

| Binder | fIL5 Fab (ELISA absorbance) [absorbance] |
| --- | --- |
| B1 | 0.1 |
| B8 | 1.28 |
| B9 | 1.13 |
| B10 | 0.722 |
| B11 | 0.513 |
| B12 | 0.877 |
| B13 | 0.809 |
| B14 | 0.708 |
| B15 | 1.01 |
| B16 | 1.04 |
| B17 | 0.782 |
| B18 | 1.16 |
| B19 | 0.748 |
| B20 | 0.545 |
| B21 | 0.972 |
| B22 | 0.672 |
| B23 | 0.653 |
| B24 | 0.738 |
| B25 | 0.702 |

Molecular target: T1, feline IL-5 (Kingfisher Biotech; …)
Experiment: SPR Biacore T200, IgG captured on goat anti-feline IgG CM5 chip, feline IL-5 as analyte
Text: Asparagine deamidation for asparagine residues and oxidation at methionine residues can negatively impact the potency and the stability of an antibody (Xu et al., 2019. MABS, 11:239-264). These post-translational modifications can be particularly problematic when they reside in the CDRs. […] DNA constructs were synthesized (GeneArt) encoding the MtxB clone with substitutions to eliminate the potential sequence liabilities. For the NG site in LCDR3, the Asn (position 106) was substituted with either a Gln or a Ser and for the Met in HCDR3 (position 115), a Len was substituted. The DNA constructs with the light chain variants were fused to the feline kappa constant domain. These DNA constructs were subcloned into the pcDNA3.4 expression vector (ThermoFisher) and expressed with the ExpiCHO system (ThermoFisher). The antibodies were purified with mAbSelect SuRe chromatography (Cytiva) and buffer exchanged into 20 mM sodium acetate, 136 mM sodium chloride, pH 5.5. The variants were tested in an SPR experiment using a Biacore T200 instrument to measure their affinity to feline IL-5 (Kingfisher Biotech; RP1152F). Goat anti-feline IgG was immobilized onto a Series S CM5 sensor chip (Cytiva) and the original MtxB clone and the variants containing the amino acid substitutions were captured on the chip at 5 μg/ml.

| Binder | Kd [nM] | koff [s⁻¹] | kon [M⁻¹ s⁻¹] |
| --- | --- | --- | --- |
| B26 | 3.6 | 0.00027 | 75000 |
| B27 | 0.56 | 8.6e-05 | 150000 |
